Where “and” joins values, the source holds several entries; their conditions need not be identical. Identical values can stand only once. Like-named read-outs stand apart in the source and are kept apart here.
Experiments:
[1] = target: T1, N-type calcium channels (IMR-32 neuroblastoma cells) (Homo sapiens, UniProt Q00975); assay: cell-based
T1 construct: host or cells: IMR-32 (differentiated)

[2] = target: class A (P/Q) calcium channels (Oryctolagus cuniculus, UniProt P27884); assay: Two-electrode voltage clamp of barium currents in Xenopus oocytes expressing class A alpha-1 subunits; conditions: 4 mM barium
class A (P/Q) calcium channels, sequence (P27884 whole entry): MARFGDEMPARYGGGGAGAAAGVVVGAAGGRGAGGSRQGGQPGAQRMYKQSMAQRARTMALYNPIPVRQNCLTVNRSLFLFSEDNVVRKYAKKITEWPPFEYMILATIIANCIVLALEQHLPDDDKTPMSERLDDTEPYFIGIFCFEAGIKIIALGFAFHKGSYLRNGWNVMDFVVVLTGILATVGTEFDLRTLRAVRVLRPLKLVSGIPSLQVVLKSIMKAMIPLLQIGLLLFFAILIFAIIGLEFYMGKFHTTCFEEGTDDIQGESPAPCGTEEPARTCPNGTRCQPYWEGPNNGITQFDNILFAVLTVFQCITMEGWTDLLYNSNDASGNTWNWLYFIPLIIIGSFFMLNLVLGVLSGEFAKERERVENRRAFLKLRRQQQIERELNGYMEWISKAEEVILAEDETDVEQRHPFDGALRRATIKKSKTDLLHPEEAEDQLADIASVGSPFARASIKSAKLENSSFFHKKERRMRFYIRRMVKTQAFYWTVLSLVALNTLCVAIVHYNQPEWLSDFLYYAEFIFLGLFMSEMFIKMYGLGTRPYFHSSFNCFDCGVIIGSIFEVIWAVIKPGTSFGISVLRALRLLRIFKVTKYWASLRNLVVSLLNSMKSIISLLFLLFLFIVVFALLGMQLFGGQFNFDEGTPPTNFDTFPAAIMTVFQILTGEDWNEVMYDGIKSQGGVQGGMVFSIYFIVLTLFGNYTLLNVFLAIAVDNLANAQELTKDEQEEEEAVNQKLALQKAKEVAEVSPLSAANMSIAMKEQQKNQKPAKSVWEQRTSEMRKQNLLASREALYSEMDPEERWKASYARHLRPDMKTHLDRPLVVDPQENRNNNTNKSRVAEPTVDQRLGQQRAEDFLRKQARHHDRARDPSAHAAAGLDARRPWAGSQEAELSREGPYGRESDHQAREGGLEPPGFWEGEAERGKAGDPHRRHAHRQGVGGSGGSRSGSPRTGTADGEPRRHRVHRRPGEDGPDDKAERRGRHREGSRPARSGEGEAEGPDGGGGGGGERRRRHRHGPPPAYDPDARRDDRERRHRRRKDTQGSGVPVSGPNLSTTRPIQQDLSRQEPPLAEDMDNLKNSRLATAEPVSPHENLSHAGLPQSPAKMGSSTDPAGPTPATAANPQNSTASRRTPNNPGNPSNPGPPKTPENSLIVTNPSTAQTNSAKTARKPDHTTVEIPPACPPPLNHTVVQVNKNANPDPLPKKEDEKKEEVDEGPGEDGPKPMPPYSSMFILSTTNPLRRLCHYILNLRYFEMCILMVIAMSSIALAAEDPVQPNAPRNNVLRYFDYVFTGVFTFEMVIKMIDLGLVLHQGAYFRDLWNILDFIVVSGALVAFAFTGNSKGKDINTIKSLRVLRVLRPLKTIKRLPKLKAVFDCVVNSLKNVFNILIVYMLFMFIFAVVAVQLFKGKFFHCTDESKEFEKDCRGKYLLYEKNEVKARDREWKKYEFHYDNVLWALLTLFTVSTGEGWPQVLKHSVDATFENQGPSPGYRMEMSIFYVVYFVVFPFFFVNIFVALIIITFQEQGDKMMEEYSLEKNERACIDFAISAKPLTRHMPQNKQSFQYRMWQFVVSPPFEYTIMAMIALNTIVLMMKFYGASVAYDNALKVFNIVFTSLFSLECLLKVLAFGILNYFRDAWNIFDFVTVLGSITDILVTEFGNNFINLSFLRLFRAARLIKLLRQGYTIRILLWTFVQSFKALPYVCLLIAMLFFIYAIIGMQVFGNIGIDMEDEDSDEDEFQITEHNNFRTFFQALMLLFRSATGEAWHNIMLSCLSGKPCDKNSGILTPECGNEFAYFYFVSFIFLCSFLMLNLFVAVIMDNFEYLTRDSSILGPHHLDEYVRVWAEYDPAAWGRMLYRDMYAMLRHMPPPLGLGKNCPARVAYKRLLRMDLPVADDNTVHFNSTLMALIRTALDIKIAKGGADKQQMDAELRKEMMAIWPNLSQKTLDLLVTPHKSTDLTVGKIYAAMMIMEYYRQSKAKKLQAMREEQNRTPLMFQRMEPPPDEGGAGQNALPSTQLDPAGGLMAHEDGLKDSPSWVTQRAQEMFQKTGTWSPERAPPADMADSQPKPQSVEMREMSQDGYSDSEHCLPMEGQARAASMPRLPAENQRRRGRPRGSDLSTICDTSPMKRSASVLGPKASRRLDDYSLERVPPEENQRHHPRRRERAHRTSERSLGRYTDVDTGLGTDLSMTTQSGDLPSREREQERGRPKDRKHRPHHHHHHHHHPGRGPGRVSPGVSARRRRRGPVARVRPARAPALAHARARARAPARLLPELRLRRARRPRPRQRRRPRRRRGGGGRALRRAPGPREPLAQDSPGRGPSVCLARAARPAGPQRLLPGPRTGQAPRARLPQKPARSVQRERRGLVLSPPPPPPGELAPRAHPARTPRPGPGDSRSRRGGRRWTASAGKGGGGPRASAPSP
class A (P/Q) calcium channels, sequence (P13806 27-960 partner limits assumed): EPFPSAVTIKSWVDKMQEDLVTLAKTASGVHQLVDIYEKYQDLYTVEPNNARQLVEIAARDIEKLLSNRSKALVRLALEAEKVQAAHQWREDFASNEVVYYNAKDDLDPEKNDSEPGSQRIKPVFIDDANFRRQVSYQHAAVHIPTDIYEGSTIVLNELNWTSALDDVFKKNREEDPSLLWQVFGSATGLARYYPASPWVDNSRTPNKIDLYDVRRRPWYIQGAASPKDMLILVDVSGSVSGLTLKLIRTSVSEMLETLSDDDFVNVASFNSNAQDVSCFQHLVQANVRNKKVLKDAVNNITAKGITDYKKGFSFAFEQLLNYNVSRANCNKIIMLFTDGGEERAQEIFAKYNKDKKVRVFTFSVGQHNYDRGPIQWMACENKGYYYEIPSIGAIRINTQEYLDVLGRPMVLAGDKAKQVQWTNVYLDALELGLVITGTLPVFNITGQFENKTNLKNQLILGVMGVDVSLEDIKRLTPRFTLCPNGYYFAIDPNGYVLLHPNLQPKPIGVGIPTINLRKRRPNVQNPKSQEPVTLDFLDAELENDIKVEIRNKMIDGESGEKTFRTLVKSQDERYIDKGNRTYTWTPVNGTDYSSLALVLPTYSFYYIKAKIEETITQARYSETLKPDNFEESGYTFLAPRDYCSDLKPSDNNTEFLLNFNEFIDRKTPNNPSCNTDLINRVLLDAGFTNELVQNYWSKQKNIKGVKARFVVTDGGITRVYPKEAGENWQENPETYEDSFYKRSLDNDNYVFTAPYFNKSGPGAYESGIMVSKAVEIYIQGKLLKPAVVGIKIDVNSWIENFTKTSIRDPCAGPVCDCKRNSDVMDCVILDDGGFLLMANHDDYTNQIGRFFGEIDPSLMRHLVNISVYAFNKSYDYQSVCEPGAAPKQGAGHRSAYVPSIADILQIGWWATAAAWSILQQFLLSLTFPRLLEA
class A (P/Q) calcium channels, sequence (P13806 961-1106 partner limits assumed): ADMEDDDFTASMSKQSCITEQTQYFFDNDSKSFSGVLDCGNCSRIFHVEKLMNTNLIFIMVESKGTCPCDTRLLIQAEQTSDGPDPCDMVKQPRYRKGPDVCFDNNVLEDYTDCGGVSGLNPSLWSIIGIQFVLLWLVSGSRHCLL
class A (P/Q) calcium channels, sequence (Q02641 whole entry partner): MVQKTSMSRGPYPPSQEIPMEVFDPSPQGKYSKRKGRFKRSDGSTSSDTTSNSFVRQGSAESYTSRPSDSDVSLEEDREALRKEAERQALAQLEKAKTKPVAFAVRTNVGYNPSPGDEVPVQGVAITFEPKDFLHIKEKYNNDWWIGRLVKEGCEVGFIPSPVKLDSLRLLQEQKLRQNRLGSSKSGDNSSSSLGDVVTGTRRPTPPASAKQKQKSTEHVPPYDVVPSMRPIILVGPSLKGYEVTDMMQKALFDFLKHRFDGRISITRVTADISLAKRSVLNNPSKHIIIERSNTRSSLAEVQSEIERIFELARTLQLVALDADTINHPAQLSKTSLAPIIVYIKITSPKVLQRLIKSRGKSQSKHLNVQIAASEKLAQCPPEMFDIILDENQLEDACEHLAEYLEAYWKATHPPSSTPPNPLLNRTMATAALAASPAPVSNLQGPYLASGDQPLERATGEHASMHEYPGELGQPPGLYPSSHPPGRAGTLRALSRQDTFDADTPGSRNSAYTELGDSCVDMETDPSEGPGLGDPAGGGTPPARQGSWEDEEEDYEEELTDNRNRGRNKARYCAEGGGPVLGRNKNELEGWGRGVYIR
Description: In these experiments, barium currents (4 mM barium, no added calcium, in medium) through the calcium channels were measured for technical reasons, in accordance with methods known in the art.
The cRNA for the alpha-1 subunit described in Mori et al. (1991) was expressed in Xenopus oocytes by standard methods (Goldin, 1992). For expression, cRNA for the alpha-1 subunit was co-injected with cRNA for the rabbit alpha2 and delta (Ellis et al. 1988) and human beta (Williams et al. 1992) subunits in equimolar ratios. Approximately 50 nL was injected per oocyte, with a total cRNA concentration of 0.8 μg/μL.
Currents were recorded, by two-electrode voltage clamp using a solution of 4 mM barium chloride, 38 mM potassium chloride, 36 mM tetraethylammonium chloride, 5 mM 4-aminopyridine, 0.4 mM niflumic acid, 5 mM HEPES (pH 7.5), and 0.1 mg/mL bovine serum albumin. Data were sampled at 5 kHz and filtered at 1 kHz utilizing a OC-725B voltage-clamp amplifier. (Warner Instruments) interfaced to PCLAMP software (Axon Instruments, Foster City, Calif.) for acquisition and analysis. Leak and capacitance currents were subtracted on-line using a P/4 protocol. Voltage pulses to 0 mV from a holding potential of −80 mV were used to elicit currents every 10 s.

[3] = target: class B voltage-gated calcium channel (human alpha-1B subunit) stably expressed in S3 cells (HEK 293) (human) (UniProt Q00975); assay: cell-based or functional assay
[4] = target: T2, class E calcium channels (192C cells) (Homo sapiens, UniProt Q15878); assay type: cell-based
T2 construct: expressed in transfected cells; host or cells: HEK 293 (192C cells)

[5] = system: DBA/2 mice; conditions: mouse, in vivo
[6] = target: class E calcium channels (Homo sapiens, UniProt Q15878); assay: Class E channel blocking, summary statements (two separate measures of channel blocking activity); assay type: cell-based; conditions: no method given
[7] = target: L-type calcium channels of GH3 cells (rat); assay: cell-based or functional assay

CCCC[C@@H]1NC(=O)[C@H](CC(C)C)NC(=O)[C@H](CCCNC(=N)N)NC(=O)[C@H](CO)NC(=O)[C@@H]2CSSC[C@@H]3NC(=O)[C@H](CO)NC(=O)CNC(=O)[C@H]([C@@H](C)O)NC(=O)[C@H](CSSC[C@H](N)C(=O)N[C@@H](CCCCN)C(=O)NCC(=O)N[C@@H](CCCCN)C(=O)NCC(=O)N[C@@H](C)C(=O)N[C@@H](CCCCN)C(=O)N2)NC(=O)[C@H](CSSC[C@@H](C(N)=O)NC(=O)[C@H](CCCCN)NC(=O)CNC(=O)[C@H](CO)NC(=O)[C@H](CCCNC(=N)N)NC3=O)NC(=O)[C@H](CC(=O)O)NC(=O)[C@H](Cc2ccc(O)cc2)NC1=O [SNX-194]
IC50 [1]: 1 nM | inhibition of remaining transient depolarization evoked increase in internal calcium [1]: nearly completely inhibited

[Cd] [cadmium]
effect on class A (P/Q) barium current ([2]; concentration not given): completely blocked

HG-1 peptide
IC50, block of peak inward calcium current, whole cell patch clamp of S-3 cells [3]: 800 nM

SNX-629: synthetic truncated HG-1 peptide corresponding to HG 1 (7-41), SEQ ID NO: 15 (CRYMFGGCSVNDDCCPRLGCHSLFSYCAWDLTFSD)
concentration inhibiting class E channels relative to that of HG-1 in the same assay [4]: less than 20 times | ED50 for the anticonvulsant effect [5]: about 5 μg/mouse

hanatoxin (ECRYLFGGCKTTSDCCKHEGCKFRDKTCAWDFTFS; listed as Grammostola spatulata)
class E calcium channel antagonist activity [6]: neither of these peptides exhibits class E calcium channel antagonist activity

omega-Aga-IIIA (from UniProt P33034 1-76) (peptide)
apparent IC50, depolarization evoked calcium signal at 60 seconds, INDO-1, GH3 cells (partial block) [7]: 1.5 nM

B1: Aga-IIIA (peptide)
peptide: SCIDIGGDCDGEKDDCQCCRRNGYCSCYSLFGYLKSGCKCVVGTSAEFQGICRRKARQCYNSDPDKCESHNKPKRR
IC50 ([1]; read-out: apparent IC50 for inhibition of depolarization evoked increase in internal calcium): 0.1 nM and ~0.1 nM | effect on class A (P/Q) barium current ([2]; 60 nM): partially blocked
